The target in assay [1] is T1, IRTA3, full-length, on transfected 293T cells (human, UniProt Q96P31 18-734).
T1 sequence: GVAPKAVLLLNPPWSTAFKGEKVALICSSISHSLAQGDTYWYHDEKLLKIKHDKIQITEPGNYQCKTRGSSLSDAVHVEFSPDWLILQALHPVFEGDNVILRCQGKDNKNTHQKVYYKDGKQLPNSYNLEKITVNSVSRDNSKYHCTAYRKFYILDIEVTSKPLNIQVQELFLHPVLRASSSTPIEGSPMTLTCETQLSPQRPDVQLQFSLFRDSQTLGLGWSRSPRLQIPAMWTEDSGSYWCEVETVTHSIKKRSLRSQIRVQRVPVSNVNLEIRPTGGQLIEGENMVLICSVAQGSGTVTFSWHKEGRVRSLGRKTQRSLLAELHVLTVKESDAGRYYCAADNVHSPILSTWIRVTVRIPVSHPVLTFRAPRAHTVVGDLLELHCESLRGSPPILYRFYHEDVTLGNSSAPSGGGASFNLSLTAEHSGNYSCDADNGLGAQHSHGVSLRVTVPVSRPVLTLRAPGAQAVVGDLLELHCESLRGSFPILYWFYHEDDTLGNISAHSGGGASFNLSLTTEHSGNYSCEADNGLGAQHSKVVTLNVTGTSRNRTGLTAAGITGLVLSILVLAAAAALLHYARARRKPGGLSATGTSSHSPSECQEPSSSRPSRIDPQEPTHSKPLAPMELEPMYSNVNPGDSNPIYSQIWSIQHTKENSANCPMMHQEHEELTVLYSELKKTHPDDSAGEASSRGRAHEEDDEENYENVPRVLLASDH
The assay can be described thus: FACS on transfected 293T (summary with IRTA-Fc ELISA, FIG. 2A and B). As for the experimental part: FIGS. 2A-B are a bar graph and a set of plots showing the cross-reactivity of the anti-IRTA2 MAbs to other IRTA family members. FIG. 2A is a bar graph of the results from an ELISA of anti-IRTA2 MAbs to various Fc-fusion proteins. Each Fc-fusion protein indicated on the top of the column was captured on ELISA plates using secondary antibody (goat anti-human IgG). After washing, 100 ng/50 μl/well of MAbs were added, followed by HRP-labeled goat anti-mouse IgG and TMBZ substrate. The signals in ELISA were normalized for the amounts of each Fc-fusion protein on the plates using HRP-goat anti-human Fc. The controls are MAbs 9E10 (anti-myc tag, IgG1), BerH2 (anti-CD30, IgG1), T408 (anti-CD30, IgG2a), T420 (anti-CD30, IgG2b) and HRP-goat anti-human Fc (1/2400 dilution). […] Two days after transfection, the cells were harvested and incubated with 200 ng/100 μl of each MAb, followed by PE-conjugated goat anti-mouse IgG F(ab′)2. […] In the positive control panels, the MAbs cross-reactive to other IRTAs were used. They are F26 (anti-IRTA1 and anti-IRTA2, IgG2b), F109 (anti-IRTA3, IgG2b), F47 (anti-IRTA4, IgG2a), and F69 (anti-IRTA5, IgG2a). BerH2 (anti-CD30, IgG1) was also used. “+” indicates more than 1.5-fold than that of the control; “++” indicates more than 10-fold mean fluorescence intensity than that of the negative control.
In general terms: An ELISA detects its analyte on a solid surface through an enzyme-linked reagent.

For assay [2], the target named is T2, IRTA2 extracellular domain-Fc fusion protein (human, UniProt Q96RD9 16-851).
T2 construct: extracellular domain; also called IRTA2-Fc; IRTA2-HFc; not shown: human IgG1 hinge and Fc
T2 sequence (looked up): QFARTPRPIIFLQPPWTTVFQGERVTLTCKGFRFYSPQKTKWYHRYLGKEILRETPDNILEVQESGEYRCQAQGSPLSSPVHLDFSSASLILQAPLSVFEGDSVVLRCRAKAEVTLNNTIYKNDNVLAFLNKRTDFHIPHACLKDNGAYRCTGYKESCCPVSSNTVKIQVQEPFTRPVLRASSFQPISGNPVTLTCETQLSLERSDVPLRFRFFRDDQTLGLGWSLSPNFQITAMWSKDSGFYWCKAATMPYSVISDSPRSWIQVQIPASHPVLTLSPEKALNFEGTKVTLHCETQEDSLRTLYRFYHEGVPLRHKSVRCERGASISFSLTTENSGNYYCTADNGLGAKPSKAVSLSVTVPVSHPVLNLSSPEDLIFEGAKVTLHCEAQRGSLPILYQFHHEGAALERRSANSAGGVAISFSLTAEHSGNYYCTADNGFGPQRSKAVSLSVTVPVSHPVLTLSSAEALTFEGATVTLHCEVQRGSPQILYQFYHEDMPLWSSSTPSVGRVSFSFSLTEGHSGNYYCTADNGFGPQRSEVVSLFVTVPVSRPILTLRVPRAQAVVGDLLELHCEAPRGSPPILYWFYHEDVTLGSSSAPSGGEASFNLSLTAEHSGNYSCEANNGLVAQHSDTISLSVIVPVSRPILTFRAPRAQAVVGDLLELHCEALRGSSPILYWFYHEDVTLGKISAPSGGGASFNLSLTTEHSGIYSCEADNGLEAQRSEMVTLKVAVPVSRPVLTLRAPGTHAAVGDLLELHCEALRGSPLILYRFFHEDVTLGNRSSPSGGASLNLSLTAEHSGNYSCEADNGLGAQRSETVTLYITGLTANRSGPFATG
The assay can be described thus: equilibrium ELISA (Friguet). As for the experimental part:
ELISA. In a typical indirect ELISA for the screening of hybridomas, microtiter plates (MaxiSorp; Nalge Nunc, Rochester, N.Y.) were coated with 100 ng/50 μl/well of goat anti-human IgG in phosphate buffered saline (PBS) for 2 hours at room temperature. Next, 50 ng/100 μl/well of IRTA2-Fc in blocking buffer (25% DMEM, 5% FBS, 25 mM HEPES, 0.5% bovine serum albumin, 0.1% sodium azide in PBS) was added to each well and incubated for 2 hours at room temperature. After washing with PBS containing 0.05% Tween 20, 50 μl of the hybridoma supernatants were added and incubated for 2 hours at room temperature. After washing, the bound MAbs were detected by a 2-hour incubation with horseradish peroxidase (HRP)-labeled goat anti-mouse IgG (Jackson ImmunoResearch, Grove, Pa.) followed by tetramethylbenzidine (TMB) substrate kit (Pierce, Rockford, Ill.). In some experiments, other IRTA-Fc fusion proteins were used instead of IRTA2-Fc.
Affinity Determination. Affinities (dissociation constant, Kd) of the anti-IRTA2 MAbs to IRTA2-Fc were determined by ELISA as previously described (Friguet et al., J Immunol Methods 77:305-19, 1985). Briefly, each MAb was incubated with various concentrations of IRTA2-Fc at room temperature for 20 hours to reach equilibrium; then the amount of MAb that remains unbound at equilibrium was measured by the indirect ELISA as described above.

B1: F25 (antibody, IgG2a, V domains shown)
VH: EVQLQQSGPELVKPGTSVKMSCKASGYSFTGYFMNWMMQNHGKSLEWIGRINLYNGDTFYNQKFKDKATLTVDKSSNTVHMEFRSLASEDSAVYYCASSLYYFDYWGQGTTFTVSS
VL: DIVMTQSHKFMSTSVGDRVNITCKASQDVGTNVAWYQQKPGQSPKLLIYWASTRQTGVPDRFTGSGSGTDFTLTISNVQSEDLSDYFCQQYSSYPLTFGAGTKLELKR
notes: mouse hybridoma MAb, IgG2a, kappa; also called MAb F25; biotin-MAb F25
Turning to B1, in assay [1], the binding result is recorded as “no binding”. In assay [2], the equilibrium dissociation constant (Kd) (usually the concentration at which binding is half-saturated) is 1.2 nM.

The record behind these values is patent US20080292632A1 (US Dept. of Health and Human Services, published 2008).
